Measurements: patent publication US20230374088A1

Target: T1, Gli2-ZF-SNAP (human), P10070
T1 chain: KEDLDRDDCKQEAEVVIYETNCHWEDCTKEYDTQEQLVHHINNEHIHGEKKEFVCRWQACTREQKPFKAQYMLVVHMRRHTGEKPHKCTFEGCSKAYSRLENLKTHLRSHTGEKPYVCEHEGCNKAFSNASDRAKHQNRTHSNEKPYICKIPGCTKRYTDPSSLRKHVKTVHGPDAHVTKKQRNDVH
Experiment: TIRF microscopy; 100 nM Gli2-ZF-SNAP-Alexa647 with 100 nM kinesin on microtubules
Details: remark: other sources report otherwise

fold Gli2-ZF Alexa-647 intensity on microtubules over Gli alone: 3 fold
B1: Kif7-MM (monomeric Kif7 motor domain, 1-386aa), Q2M1P5 1-386 (protein)
chain: MGLEAQRLPGAEEAPVRVALRVRPLLPKELLHGHQSCLQVEPGLGRVTLGRDRHFGFHVVLAEDAGQEAVYQACVQPLLEAFFEGFNATVFAYGQTGSGKTYTMGEASVASLLEDEQGIVPRAMAEAFKLIDENDLLDCLVHVSYLEVYKEEFRDLLEVGTASRDIQLREDERGNVVLCGVKEVDVEGLDEVLSLLEMGNAARHTGATHLNHLSSRSHTVFTVTLEQRGRAPSRLPRPAPGQLLVSKFHFVDLAGSERVLKTGSTGERLKESIQINSSLLALGNVISALGDPQRRGSHIPYRDSKITRILKDSLGGNAKTVMIACVSPSSSDFDETLNTLNYASRAQNIRNRATVNWRPEAERPPEETASGARGPPRHRSETRIIH
modifications: here or on the partner: Alexa 647 dye on the SNAP tag in the TIRF assays
